# Paper PMC10251311
# How the values were obtained:
# Test in all cases: MST
# [1] = biological target: RSV postfusion F (Respiratory syncytial virus) (UniProt P03420+P03420); settings: T in primer region unmodified, MST: PBS, 0.05% Tween 20, 25 C, 10-20 nM Cy5-aptamer, AlphaScreen: PBS with mucin 10 mg/L, BSA 1 mg/ml, salmon sperm DNA 1 mg/L, RT, 10 nM biotin-aptamer …
# [2] = tested on: Influenza H1 hemagglutinin S106 DS26r (Influenza virus H1); settings: every U is TAdU (5-[(3-indolyl)propionamide-N-allyl]-2'-deoxyuridine); all sugars deoxyribose; T in primer region unmodified; MST: PBS, 0.05% Tween 20, 25 C, 10-20 nM Cy5-aptamer; AlphaScreen: PBS with mucin 10 mg/L, BSA 1 mg/ml, salmon sperm DNA 1 mg/L, RT, 10 nM biotin-aptamer …
# [3] = biological target: hMPV prefusion F v3B (Human metapneumovirus) (UniProt Q6WB98); settings: every U is TAdU (5-[(3-indolyl)propionamide-N-allyl]-2'-deoxyuridine); all sugars deoxyribose; T in primer region unmodified; MST: PBS, 0.05% Tween 20, 25 C, 10-20 nM Cy5-aptamer; AlphaScreen: PBS with mucin 10 mg/L, BSA 1 mg/ml, salmon sperm DNA 1 mg/L, RT, 10 nM biotin-aptamer …
# hMPV prefusion F v3B (Human metapneumovirus), sequence (Q6WB98 whole entry, the tested form may be a part): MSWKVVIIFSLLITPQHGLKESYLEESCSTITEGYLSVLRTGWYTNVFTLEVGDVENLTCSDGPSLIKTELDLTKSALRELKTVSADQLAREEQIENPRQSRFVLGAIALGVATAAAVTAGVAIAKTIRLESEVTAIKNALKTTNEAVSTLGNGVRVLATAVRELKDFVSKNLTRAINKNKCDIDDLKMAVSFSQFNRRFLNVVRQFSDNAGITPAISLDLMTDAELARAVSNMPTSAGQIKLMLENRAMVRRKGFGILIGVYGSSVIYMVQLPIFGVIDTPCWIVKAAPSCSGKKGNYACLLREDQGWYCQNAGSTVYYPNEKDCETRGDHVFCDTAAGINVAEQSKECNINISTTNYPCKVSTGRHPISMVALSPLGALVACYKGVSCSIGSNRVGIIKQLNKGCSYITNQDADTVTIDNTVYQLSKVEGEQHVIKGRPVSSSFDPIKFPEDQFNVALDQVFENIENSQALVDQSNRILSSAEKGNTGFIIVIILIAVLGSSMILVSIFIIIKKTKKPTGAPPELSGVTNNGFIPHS
sequence,measurement,setting,value
GATCGAGCCAGCTACGTCAGUUAUGGUAUAGGUUGGUGGUGGGGGGGGGUUGUGGUGGGACAUGCCUCAGCGACUA [B1],Kd,[1]; every U is TAdU (deoxy),3.99 µM
GATCGAGCCAGCTACGTCAUGCUGUCAAUGGGUGGGUGUGGUGGGGUUGAUGUUAUGUGACAUGCCUCAGCGACUA [A2],Kd,[2],14.7 µM
same,Kd,"[1]; every U is TAdU (5-[(3-indolyl)propionamide-N-allyl]-2'-deoxyuridine), all sugars deoxyribose",0.994 µM
same,Kd,[3],6.95 µM
GATCGAGCCAGCTACGTCAUGGUUGGGAGGUGUUGUGGGGAUGGUGGGUGGGAGUAUGACAUGCCUCAGCGACUA [D4],Kd,[1]; every U is TAdU (deoxy),2.76 µM
